Experimental data taken from publication doi:10.1101/2023.06.05.543797.
Where “and” joins values, the source holds several entries; their conditions need not be identical. Equal entries are not always repeated.

Key:
Details in all cases: scale: KASH6 per SUN1
[1] = biological target: SUN domain of human SUN1 (amino-acids 616-812) (human); experiment: SEC-MALS
[2] = biological target: SUN domain of human SUN1 (amino-acids 616-812) (human); experiment: SEC-MALS; remark: listed apart in the source
[3] = biological target: SUN domain of human SUN1 (amino-acids 616-812) (human); experiment: crystal structure
[4] = biological target: SUN domain of human SUN1 (amino-acids 616-812) (human); experiment: SEC-MALS; remark: listed apart in the source

Row | stoichiometry N [1] | stoichiometry N [2] | stoichiometry N [3] | stoichiometry N [4] | Binder
1 | 1 | 0.67 |  |  | EDSWTSLEHILWPFTRLRHNGPPPV [KASH6 core (human JAW1/LRMP amino-acids 531-555)]
2 | 1 |  | 0.67 | 0.67 and 1 | TGQLFQKSVDAAPTQQEDSWTSLEHILWPFTRLRHNGPPPV [KASH domain of human JAW1/LRMP (amino-acids 515-555)]
